From publication PMC3934934, “The Self-Interaction of a Nodavirus Replicase Is Enhanced by Mitochondrial Membrane Lipids” (PLoS ONE, 2014) come the findings set out here.

Holding throughout (conditions): one partner purified
Experiment [1] has as its target T1, MBP-tagged full-length (FL) WhNV protein A (Wuhan nodavirus (WhNV), UniProt Q3KSM3 1-1014).
T1 construct: also called MBP-protA; 1–1014 MBP/protA; source: E. coli strain TB1, purified (amylose resin); not shown: MBP, N-terminal, kept
T1 sequence: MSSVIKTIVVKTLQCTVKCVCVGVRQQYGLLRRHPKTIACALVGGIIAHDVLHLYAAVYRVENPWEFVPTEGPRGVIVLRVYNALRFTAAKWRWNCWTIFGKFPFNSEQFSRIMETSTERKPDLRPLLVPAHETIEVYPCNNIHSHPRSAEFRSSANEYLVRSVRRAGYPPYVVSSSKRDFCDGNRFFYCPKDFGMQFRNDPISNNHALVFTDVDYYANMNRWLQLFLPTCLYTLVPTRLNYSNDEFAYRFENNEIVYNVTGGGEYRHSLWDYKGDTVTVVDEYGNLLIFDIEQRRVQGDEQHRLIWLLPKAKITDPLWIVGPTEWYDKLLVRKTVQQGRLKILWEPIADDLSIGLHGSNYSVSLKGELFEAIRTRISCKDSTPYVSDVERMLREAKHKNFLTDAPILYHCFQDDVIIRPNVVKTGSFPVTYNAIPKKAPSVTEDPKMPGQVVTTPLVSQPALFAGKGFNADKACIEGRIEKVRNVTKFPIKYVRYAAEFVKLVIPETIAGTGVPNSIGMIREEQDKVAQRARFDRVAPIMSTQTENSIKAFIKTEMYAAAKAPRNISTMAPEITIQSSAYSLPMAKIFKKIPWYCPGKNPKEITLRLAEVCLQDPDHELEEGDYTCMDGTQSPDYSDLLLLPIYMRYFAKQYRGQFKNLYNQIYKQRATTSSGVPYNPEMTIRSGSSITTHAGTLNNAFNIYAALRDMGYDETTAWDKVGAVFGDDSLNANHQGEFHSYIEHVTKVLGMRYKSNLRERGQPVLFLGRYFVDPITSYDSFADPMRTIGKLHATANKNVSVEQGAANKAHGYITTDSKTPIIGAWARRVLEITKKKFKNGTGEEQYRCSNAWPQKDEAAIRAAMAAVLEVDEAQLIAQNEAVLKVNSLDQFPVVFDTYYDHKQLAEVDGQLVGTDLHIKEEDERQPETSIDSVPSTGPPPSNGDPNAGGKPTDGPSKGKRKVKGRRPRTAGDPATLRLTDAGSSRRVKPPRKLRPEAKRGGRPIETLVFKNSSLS
In words: pull-down.

Experiment [2] addresses T2, MBP-protA fragment aa 481–659 (Wuhan nodavirus (WhNV), UniProt Q3KSM3 481-659).
T2 construct: source: E. coli strain TB1, purified (amylose resin); not shown: MBP, N-terminal, kept
T2 sequence: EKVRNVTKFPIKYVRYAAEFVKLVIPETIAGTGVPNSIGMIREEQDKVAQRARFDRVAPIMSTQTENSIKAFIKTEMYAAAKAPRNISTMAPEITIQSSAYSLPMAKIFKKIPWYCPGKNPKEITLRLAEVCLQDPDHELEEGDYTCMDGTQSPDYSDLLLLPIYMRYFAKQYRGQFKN
Kind of experiment: pull-down; MBP fusion protein (1 µM) held on amylose resin, His-tagged protein (1 µM) in vitro translated in rabbit reticulocyte lysate; room temperature, 4 hrs; no lipids; Western blot with anti-His; signals given as % of FL to FL protein A self-interaction. On the technique in general: Immunoblotting shows a protein as a band on a membrane.

For experiment [3], the target named is T3, MBP-protA fragment aa 1–839 (Wuhan nodavirus (WhNV), UniProt Q3KSM3 1-839).
T3 construct: also called 1–839 MBP/protA; source: E. coli strain TB1, purified (amylose resin); not shown: MBP, N-terminal, kept
T3 sequence: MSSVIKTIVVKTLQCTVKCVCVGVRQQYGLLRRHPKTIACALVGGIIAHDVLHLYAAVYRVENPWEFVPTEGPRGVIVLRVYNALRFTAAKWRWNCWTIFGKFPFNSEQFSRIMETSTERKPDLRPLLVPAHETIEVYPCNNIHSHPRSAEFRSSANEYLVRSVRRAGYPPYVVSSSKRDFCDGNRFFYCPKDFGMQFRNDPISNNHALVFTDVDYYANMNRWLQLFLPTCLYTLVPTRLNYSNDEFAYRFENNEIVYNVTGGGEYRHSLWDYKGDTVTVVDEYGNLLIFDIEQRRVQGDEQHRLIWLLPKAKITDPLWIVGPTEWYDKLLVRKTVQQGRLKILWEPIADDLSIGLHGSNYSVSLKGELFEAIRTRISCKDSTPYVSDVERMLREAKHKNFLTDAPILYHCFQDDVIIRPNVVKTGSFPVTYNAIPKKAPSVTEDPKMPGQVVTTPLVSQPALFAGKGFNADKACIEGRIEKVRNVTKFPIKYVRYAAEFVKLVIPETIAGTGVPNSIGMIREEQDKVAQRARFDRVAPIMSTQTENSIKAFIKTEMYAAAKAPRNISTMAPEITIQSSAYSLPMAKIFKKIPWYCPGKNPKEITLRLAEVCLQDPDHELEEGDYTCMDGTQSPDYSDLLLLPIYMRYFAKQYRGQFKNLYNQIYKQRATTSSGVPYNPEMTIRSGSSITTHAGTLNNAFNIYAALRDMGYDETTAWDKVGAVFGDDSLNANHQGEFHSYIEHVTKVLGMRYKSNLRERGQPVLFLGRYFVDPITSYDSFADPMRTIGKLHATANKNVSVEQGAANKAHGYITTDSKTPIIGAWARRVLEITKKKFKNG
The experiment is described as above.

B1: His-tagged WhNV protein A, in vitro translated (natural protein)
chain: MSSVIKTIVVKTLQCTVKCVCVGVRQQYGLLRRHPKTIACALVGGIIAHDVLHLYAAVYRVENPWEFVPTEGPRGVIVLRVYNALRFTAAKWRWNCWTIFGKFPFNSEQFSRIMETSTERKPDLRPLLVPAHETIEVYPCNNIHSHPRSAEFRSSANEYLVRSVRRAGYPPYVVSSSKRDFCDGNRFFYCPKDFGMQFRNDPISNNHALVFTDVDYYANMNRWLQLFLPTCLYTLVPTRLNYSNDEFAYRFENNEIVYNVTGGGEYRHSLWDYKGDTVTVVDEYGNLLIFDIEQRRVQGDEQHRLIWLLPKAKITDPLWIVGPTEWYDKLLVRKTVQQGRLKILWEPIADDLSIGLHGSNYSVSLKGELFEAIRTRISCKDSTPYVSDVERMLREAKHKNFLTDAPILYHCFQDDVIIRPNVVKTGSFPVTYNAIPKKAPSVTEDPKMPGQVVTTPLVSQPALFAGKGFNADKACIEGRIEKVRNVTKFPIKYVRYAAEFVKLVIPETIAGTGVPNSIGMIREEQDKVAQRARFDRVAPIMSTQTENSIKAFIKTEMYAAAKAPRNISTMAPEITIQSSAYSLPMAKIFKKIPWYCPGKNPKEITLRLAEVCLQDPDHELEEGDYTCMDGTQSPDYSDLLLLPIYMRYFAKQYRGQFKNLYNQIYKQRATTSSGVPYNPEMTIRSGSSITTHAGTLNNAFNIYAALRDMGYDETTAWDKVGAVFGDDSLNANHQGEFHSYIEHVTKVLGMRYKSNLRERGQPVLFLGRYFVDPITSYDSFADPMRTIGKLHATANKNVSVEQGAANKAHGYITTDSKTPIIGAWARRVLEITKKKFKNGTGEEQYRCSNAWPQKDEAAIRAAMAAVLEVDEAQLIAQNEAVLKVNSLDQFPVVFDTYYDHKQLAEVDGQLVGTDLHIKEEDERQPETSIDSVPSTGPPPSNGDPNAGGKPTDGPSKGKRKVKGRRPRTAGDPATLRLTDAGSSRRVKPPRKLRPEAKRGGRPIETLVFKNSSLS
notes: also called His-protA; FL His-protA; source: in vitro translated in nuclease-treated rabbit reticulocyte lysates
For the molecule B1, in experiment [1], the “fold of the self-interaction without MMLs, at 1 µg/µl MMLs” value was around 4.6 fold; the “fold of the self-interaction without MMLs, at 2 µg/µl MMLs” value was around 9 fold; the “fold of the self-interaction without MMLs, at 5 µg/µl MMLs” value is around 12 fold. Further, the “self-interaction efficiency, % of FL to FL protein A self-interaction” value in experiment [2] is 17%. The “self-interaction efficiency, % of FL to FL protein A self-interaction” value in experiment [3] turned out to be 108%.
